# Measured values taken from patent US12606638B2, “Dosing regimens for use with PCSK9 inhibitors” (Sanofi Biotechnology, priority 2013, dated 2026).
# Where “and” joins values, the source holds several entries; their conditions need not be identical. Equal entries are not always repeated. Where two headings read alike, the source gives them in different places.
# Assays:
# healthy subjects [1] = assay: Phase 1 study in healthy subjects: pharmacodynamic profile (serum lipid parameters) of alirocumab alone or on top of ezetimibe or fenofibrate; format: in vivo, human; details: for Percent change in LDL-C during the run-in period (Day −29 to Day −1): ezetimibe 10 mg/day or fenofibrate 160 mg/day alone, before alirocumab, value on Day −1, mean (SEM); for Mean percent change in LDL-C from Day −1 baseline to Day 71: additional baseline Day −1 (start of alirocumab injection); for Mean percent change in LDL-C from Day −29 baseline to Day 71: main baseline Day −29 (start of placebo/EZE/FENO run-in), Day 71 = 14 days after 3rd alirocumab dose, 150 mg SC Q4W, N=24
# Protocol: (§1) The primary objective of the study was to assess the pharmacodynamic profile of alirocumab administered either alone or on top of ezetimibe or fenofibrate, based on low density lipoprotein cholesterol (LDL-C).
# The study evaluated 72 healthy subjects.
# Alirocumab was administered subcutaneously in the abdomen.
# Ezetimibe was formulated as a 10 mg over-encasulated tablet (and matching placebo ezetimibe capsule). Ezetimibe was administered orally.
# Fenofibrate was formulated at a 160 mg coated tablet. Fenofibrate was administered orally during a meal.
# The duration of treatment was as follows.
# The pharmacodynamic criteria were as follows. The primary endpoint was percent change in calculated serum LDL-C from baseline (D-29). The secondary endpoints were absolute change from baseline in calculated LDL-C, total cholesterol (TC), high density lipoprotein cholesterol (HDL-C), non-HDL-C, triglycerides (TG), apolipoprotein B (ApoB), apolipoprotein A1 (ApoA1), and lipoprotein a (Lp[a]) analyzed in percent and absolute change from baseline.
# The blood sampling for lipid parameters (ie, LDL-C, TC, HDL-C, non-HDL-C, TG, ApoB, ApoA1, Lp[a]) were performed in the morning, in the fasted condition (at least 10-hours fasted and refrained from smoking), before any drug intake.
# Blood samples were collected at screening; Day −1 of the run-in phase; and Days 8, 15, 22, 29±1, 57±1, 64±1, 71±1, 78±1, 85±1, 99±2, and 120±3 of the treatment phase.
# [2] = test system: patients with genotype-confirmed hoFH; details: ezetimibe 10 mg/day added to maximal dose of statins; cited from earlier work
# free PCSK9 = assay: Phase 1 study: circulating levels of free PCSK9; format: in vivo, human; details: for Free PCSK9 level at end of run-in period: prior to alirocumab treatment, from 152 (FENO) and 151 (EZE) at start of run-in
# Description: as §1
# [3] = in vivo
# healthy subjects [4] = assay: Phase 1 study: safety (adverse events, laboratory, vital signs, ECG); details: for Patients with any TEAEs, %: N = 24 per group
# [5] = in vivo; remark: listed apart in the source
# Protocol: Samples for the determination of anti-drug antibody (ADA) levels in serum were collected at Day −28 of the run-in phase; Days 29, 57, 85, and 120 of the treatment phase; and the EOS visit.
# In neat serum samples, the validated lower limit of detection was approximately 1.5 ng/mL.
# [6] = additional baseline Day −1, 14 days after 3rd alirocumab dose
# [7] = listed as Alirocumab 150 mg Q4W + placebo
# [8] = main baseline Day −29, 14 days after 3rd alirocumab dose
# [9] = median, additional baseline Day −1, 14 days after 3rd alirocumab dose
# [10] = median, main baseline Day −29, 14 days after 3rd alirocumab dose
compound,measurement,setting,value
O=C1[C@H](CC[C@H](O)c2ccc(F)cc2)[C@@H](c2ccc(O)cc2)N1c1ccc(F)cc1 [ezetimibe],Percent change in LDL-C during the run-in period (Day −29 to Day −1),healthy subjects [1],−19.8 (2.1) %
same,Total reduction of LDL-C levels,[2],27%
same,Free PCSK9 level at end of run-in period,free PCSK9,142 ng/mL
"CC(C)OC(=O)C(C)(C)Oc1ccc(C(=O)c2ccc(Cl)cc2)cc1 [fenofibrate, reference compound]",Percent change in LDL-C during the run-in period (Day −29 to Day −1),healthy subjects [1],−25.9 (3.2) %
same,Free PCSK9 level at end of run-in period,free PCSK9,217 ng/mL
alirocumab,Percent change in LDL-C from Day −1 baseline to Day 85,healthy subjects [1]; 28 days after the 3rd administration of alirocumab,−47.03%
same,Mean percent change in LDL-C from Day −1 baseline to Day 71,"healthy subjects [1]; 14 days after 3rd alirocumab dose, listed as Alirocumab 150 mg Q4W + placebo",−47.4%
same,Mean percent change in LDL-C from Day −1 baseline to Day 71,"healthy subjects [1]; 14 days after 3rd alirocumab dose, listed as alirocumab alone",−47.39% and −47.4 (3.2) %
same,Mean percent change in Apolipoprotein B from Day −1 baseline to Day 71,healthy subjects [1]; [6],−38.4%
same,Mean percent change in HDL-C from Day −1 baseline to Day 71,healthy subjects [1]; [6],3.6%
same,Mean percent change in Non-HDL-C from Day −1 baseline to Day 71,healthy subjects [1]; [6],−43.0%
same,Mean percent change in Total cholesterol from Day −1 baseline to Day 71,healthy subjects [1]; [6],−31.5%
same,"LDL-C reductions, sustained over the 28-day dosing interval","healthy subjects [1]; alirocumab 150 mg Q4W monotherapy, regardless of baseline",~48%
same,Mean percent change in LDL-C from Day −29 baseline to Day 71,healthy subjects [1]; [7],−48.2%
same,Mean percent change in LDL-C from Day −29 baseline to Day 71,healthy subjects [1]; listed as alirocumab alone,−47.59% and −48.2 (2.3) %
same,Mean percent change in Apolipoprotein B from Day −29 baseline to Day 71,healthy subjects [1]; [8],−39.1%
same,Mean percent change in HDL-C from Day −29 baseline to Day 71,healthy subjects [1]; [8],3.3%
same,Mean percent change in Non-HDL-C from Day −29 baseline to Day 71,healthy subjects [1]; [8],−43.0%
same,Mean percent change in Total cholesterol from Day −29 baseline to Day 71,healthy subjects [1]; [8],−31.6%
same,Median percent change in Lipoprotein (a) from Day −1 baseline to Day 71,healthy subjects [1]; [9],−11.7%
same,Median percent change in Triglycerides from Day −1 baseline to Day 71,healthy subjects [1]; [9],−3.9%
same,Median percent change in Lipoprotein (a) from Day −29 baseline to Day 71,healthy subjects [1]; [10],−20.3%
same,Median percent change in Triglycerides from Day −29 baseline to Day 71,healthy subjects [1]; [10],5.7%
same,"AUClast, Geometric Mean",[3]; human,(306) [38.4] mg · day/l
same,"AUClast, Mean ± SD",[3]; human,326 ± 125 mg·days/L
same,"CL/F, Mean ± SD",[3]; human,0.312 ± 0.124 L/day
same,"Cmax, Mean ± SD",[3]; human,24.3 ± 8.61 µg/mL
same,"MRT, Geometric Mean",[3]; human,(18.2) [20.7] day
same,"MRT, Mean ± SD",[3]; human,18.5 ± 3.84 days
same,"t1/2z, Geometric Mean",[3]; human,(8.37) [35.7] day
same,"t1/2z, Mean ± SD",[3]; human,8.76 ± 3.12 days
same,"Cmax, Mean ± SD","[3]; human, sc, 150 mg",20.4 ± 13.5 µg/mL
same,"AUC, Geometric Mean",[3],(318) [58.9]^b mg · day/l
same,"AUC, Mean ± SD",[3],357 ± 210 mg·days/L
same,"AUCExt (percentage of extrapolation of AUC), Geometric Mean",[3],(22) [44.7] %
same,"AUCExt (percentage of extrapolation of AUC), Mean ± SD",[3],25 ± 11%
same,"tlast, Median",[3],69.00 days
same,"Abdominal pain (TEAE), %",healthy subjects [4]; N = 24,(8.3) %
same,"Gastroenteritis viral (TEAE), %",healthy subjects [4]; N = 24,(0) %
same,"Headache (TEAE), %",healthy subjects [4]; N = 24,(12.5) %
same,"Influenza (TEAE), %",healthy subjects [4]; N = 24,(8.3) %
same,"Influenza-like illness (TEAE), %",healthy subjects [4]; N = 24,(4.2) %
same,"Nasopharyngitis (TEAE), %",healthy subjects [4]; N = 24,(12.5) %
same,"Patients with any TEAEs, %",healthy subjects [4]; [7],(50.0) %
same,"Patients with any TEAEs, %",healthy subjects [4]; listed as alirocumab alone,50.0%
same,Tolerability,"healthy subjects [4]; alone or on top of ezetimibe or fenofibrate, 150 mg Q4W for 3 administrations, healthy subjects",well tolerated
same,"Subjects tested ADA positive, %",[5],16.7%
same,"Subjects tested ADA positive, number",[5],Four out of 24
same,Effect on free PCSK9 after alirocumab injection,free PCSK9; after the 1st and 3rd alirocumab injections,complete suppression
